The results in this text go back to publication PMC3682188, “Membrane Binding and Self-Association of the Epsin N-Terminal Homology Domain” (Journal of Molecular Biology, 2012).

The series concerns the molecule itself. Put plainly: EPR spectroscopy (spin-spin interaction of singly labeled protein, with spin dilution); bound to preformed lipid tubules (10% cholesterol/40% phosphatidylcholine/40% galactocerebrosides/10% PIP2); 10 uM protein with 60 ug tubes in 100 ul, 10 min at RT, pelleted at 152,800g; 20 mM Hepes pH 7.4, 150 mM NaCl; fully labeled compared with 33% labeled and 67% unlabeled protein.

B1: rat epsin 1 ENTH domain (1-164), spin-labeled at residue 14 (domain or fragment)
chain: GSPGIHMSTSSLRRQMKNICHNYSEAEIKVREATSNDPWGPSSSLMSEIADLTYNVVAFSEIMSMIWKRLNDHGKNWRHVYKAMTLMEYLIKTGSERVSQQSKENMYAVQTLKDFQYVDRDGKDQGVNVREKAKQLVALLRDEDRLREERAHALKTKEKLAQTATASSAA
modifications: MTSL spin label (R1 side chain) on the cysteine introduced at position 14
notes: cysteine-less background (C96S) with a single cysteine at position 14; same construct as the crystallography study (PDB 1H0A); also called V14; source: E. coli BL21 (DE3), purified (glutathione-Sepharose, thrombin, ion exchange, gel filtration), labeled with MTSL; not shown: GST, N-terminal, cleaved
For the protein B1, the binding result is on record as “binds”.
